# Target: human β2 adrenergic receptor, wild type (human) (UniProt P07550)
# Assay: cell-based or functional assay
substance,measurement,value
MbNb80^cHopQ (designed binder),apparent potency shift for epinephrine: IC50 for β2AR-wt alone divided by IC50^high in the presence of MbNb80^cHopQ ([3H]-DHA competition) (fold (IC50 ratio)),2000
same,apparent potency shift for isoprotenerol: IC50 for β2AR-wt divided by IC50^high in the presence of MbNb80^cHopQ ([3H]-DHA competition) (fold (IC50 ratio)),2000
